Consider 1 molecule from paper PMC7862700, “An all-to-all approach to the identification of sequence-specific readers for epigenetic DNA modifications on cytosine”.

In series [1] the target is T1, ETS2 (Homo sapiens, UniProt P15036 1-469).
T1 sequence: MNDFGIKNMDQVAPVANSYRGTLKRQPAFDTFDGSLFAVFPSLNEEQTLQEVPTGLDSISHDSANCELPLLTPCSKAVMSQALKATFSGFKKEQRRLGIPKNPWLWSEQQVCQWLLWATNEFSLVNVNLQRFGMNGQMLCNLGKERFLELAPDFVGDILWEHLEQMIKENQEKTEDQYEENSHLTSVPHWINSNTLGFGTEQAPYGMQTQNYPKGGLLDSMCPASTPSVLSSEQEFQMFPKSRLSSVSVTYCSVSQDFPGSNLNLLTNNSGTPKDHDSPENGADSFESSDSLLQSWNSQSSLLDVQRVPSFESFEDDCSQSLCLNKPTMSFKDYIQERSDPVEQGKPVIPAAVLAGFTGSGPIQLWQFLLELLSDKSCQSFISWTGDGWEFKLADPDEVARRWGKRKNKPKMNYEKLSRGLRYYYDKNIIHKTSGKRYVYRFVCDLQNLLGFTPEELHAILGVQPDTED
Put plainly: BLI (OCTET); EMSA: 25 mM HEPES pH 8.0, 100 mM NaCl, 50 mM KAc, 5 mM MgCl2, 5% glycerol, 1 mM DTT, 0.1 mg/mL BSA, ~22 C, 5 nM probe; OCTET: 50 mM HEPES pH 8.0, 100 mM NaCl, 50 mM KAc, 5 mM MgCl2, 40 mM glutathione, 5 mg/mL BSA, 0.05% Tween-20. Particulars: protein: recombinant; tags: N-terminal GST; label: 5' biotin on strand 2 (Bio-T7 primer); blunt.

Series [2] addresses T2, SPDEF (Homo sapiens, UniProt O95238 1-335).
T2 sequence: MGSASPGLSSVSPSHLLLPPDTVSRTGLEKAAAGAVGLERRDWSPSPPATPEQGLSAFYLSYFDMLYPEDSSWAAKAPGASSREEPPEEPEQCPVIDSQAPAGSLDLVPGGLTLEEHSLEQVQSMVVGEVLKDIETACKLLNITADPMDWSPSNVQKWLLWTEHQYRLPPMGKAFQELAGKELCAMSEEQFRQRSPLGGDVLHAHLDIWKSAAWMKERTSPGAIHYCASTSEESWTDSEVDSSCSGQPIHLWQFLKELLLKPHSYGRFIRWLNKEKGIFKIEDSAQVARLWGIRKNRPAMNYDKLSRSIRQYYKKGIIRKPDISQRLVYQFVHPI
The series is described as above. The settings on record: protein: recombinant; tags: N-terminal GST; label: 5' biotin on strand 2 (Bio-T7 primer); blunt.

B1: ETS family probe (dsDNA)
DNA 1: ACTTCCGGTTATAGTGAGTGCTATTA
DNA 2: TAATAGCACTCACTATAACCGGAAGT
With B1, the Kd came out at 1.8 nM in series [1] and 132 nM in series [2].
